The values that follow come from patent US20220195015A1 (published 2022).

B1: C597 (antibody, V domains shown)
VH: QVQLVQSGPEVKKPGTSVKVSCKASGFTFTNSAVQWVRQSRRQRLEWIGWIVVGSGNTNYAQKFQERVTITRDMSTSTAYMELSSLRSEDTAVYYCAAVDCNSTSCYDAFDIWGQGTMVTVSS
VL: EIVLTQSPGTLSLSPGERATLSCRASQSFRSSYLAWYQQKPGQAPRLLIYGASSRATGIPDRFSGSGSGSDFTLTISRLEPEDFAVYYCQQYDISPWTFGQGTKVEIK
B2: C516 (antibody, V domains shown)
VH: QVQLVQSGAEVKKPGSSVKVSCKASGGTFSSYAISWVRQAPGQGLEWMGRIIPMLVIATYARKFQGRVTITADKSTSTAYMELSSLRSEDTAVYYCARGVVAATPGNFDIWGQGTMVTVSS
VL: EIVMTQSPATLSVSPGERATLSCRASQSVSSNLAWYQQKPGQAPRLLIYGASTRATGIPARFSGSGSGTEFTLTISSLQSEDFAVYYCQQYNNGLTFGGGTKVEIK
B3: C502 (antibody, V domains shown)
VH: QVQLVQSGAEVKKPGSSVKVSCKASGDTFSSHAINWVRQAPGQGLEWMGRSIPMLGVTTSAQKFKGRVTITADHSTSTVFMDLSSLRSDDTAIYYCARGVVGATPGSFDLWGQGTMVTVSS
VL: EIVMTQSPATLSVSPGKRATLSCRASQSVRSNLAWYQQRPGQAPRLLIYDAATRATGIPTRFSGSGSGTEFTLTISSLQSEDFAVYYCQQYDNGLTFGGGTKVEIK
B4: C073 (antibody, V domains shown)
VH: QLQLQESGPGLVKPSETLSLTCTVSGASIPSSTSYWGWIRQPPGKGLEWIGSIYYTGSTYYNPSLKSRVTISVDTSKNHFSLILSSVTAADTAVYYCARRSITLAGRDCLDFWGQGTLVTVSS
VL: DIQLTQSPSSLSASVGDRLTITCRASQSITTSLNWYQQKPGKAPKLLIYAASSLQSGVPSRFSGSGSGTDFTLAISSLQPEDFATYYCQQSYIPLLTFGGGTKVDIK
B5: C132 (antibody, V domains shown)
VH: QVQLQESGPGLVKPSGTLSLTCAVSGGSISSNNWWSCVRQPPGKGLEWIGEIYHSGSTNYNPSLKSRVTISVDKSKNQFSLKLSSVTAADTAVYYCARGGDTAMGPEYFDYWGQGTLVTVSS
VL: QSALTQPASVSGSPGQSITISCTGTSSDVGGYNYVSWYQQHPGKAPKLMIYDVSNRPSGVSNRFSGSKSGNTASLTISGLQAEDEADYYCSSYTSSSTLLFGGGTKLTVL
B6: C512 (antibody, V domains shown)
VH: QVQLQESGPGLVKPSGTLSLTCAVSAGSISSNNWWSWVRQPPGKGLEWIGEVYHNGNINYNPSLKSRVTLSVDKSKNQFSLKLSSVTAADTAVYYCAKGGDRAMGPEYFDSWGQGTLVTVSS
VL: QSALTQPASVSGSPGQSITISCTGTSSDVGANNYVSWYQQHPGKAPKLMIYDVNERPSGVSNRFSGSKSGNTASLTISGLQTEDEADYYCSSFASSSTLLFGGGTKLTVL
B7: C517 (antibody, V domains shown)
VH: EVQLVESGGGLVQPGGSLRLSCAASEFIVSRNYMSWVRQAPGKGLEWVSLIYSGGSTYYADSVKGRFTISRDNSKNTLYLQMNSLRAEDTAMYYCARDIAGRLDYWGQGTLVTVSS
VL: DIQMTQSPSSLSASVGDRVTITCQASQDISKYLNWYQQKPGKAPKLLIYDASNLETGVPSRFSGSGSGTDFTFTISSLQPEDFATYYCQHYDSLSRLTFGGGTKVEIK
B8: C514 (antibody, V domains shown)
VH: EVQLVESGGGLVQPGGSLRLSCAASEFIVTRNYMSWVRQAPGKGLEWVSLIYPGGSTFYADSVKGRFTISRDNSKNTLFLHMNSLRAEDTAVYYCARDLAGRLDYWGQGTLVTVSS
VL: DIQMTQSPSSLSASVGDRVTITCQASQDINNFLNWYQQKPGKAPKLLIYDASNLETGVPSRFSGSGSGTDFTFTISSLQPEDIAIYYCQQYDSLSRLTFGGGTKVEIK
B9: C077 (antibody, V domains shown)
VH: QVQLVQSGAEVKKPGASVKVSCKASGYTFTSYAMHWVRQAPGQRLEWMGWINTDNGNTKYSQKFQGRVTITRDTSASTAYMELSSLRSEDTAVYYCAREGALTNWFDPWGQGTLVTVSS
VL: SYELTQPPSVSVAPGQTARIPCGGNNIGSKSVHWYQQKPGQAPVLVVYDDSDRPSGIPERFSGSNSGNTATLTISRVEAGDEADYYCQVWDSSSDLHVVFGGGTKLTVL
B10: C513 (antibody, V domains shown)
VH: EVQLLESGGGLVQPGGSLRLSCVASGFSFSTYAMSWVRQAPGQGLEWVSTITGTSIGTYYADSVKGRFTISRDNSKNTVFLQMKSLRAEDAAVYYCANHPLASGDEYYYYYMDVWGKGTTVTVSS
VL: EIVLTQSPDTLSLSPGERATLSCRASQSVHSKQLAWYQQKPGQAPRLLIYGASSRATGIPDRFSGSGSGTDFTLTISRLEPEDFAVYYCQQYGSIRALTFGGGTKVEIK
B11: C515 (antibody, V domains shown)
VH: EVQLVESGGGLVQPGGSLRLSCAASGFIVSSNYMSWVRQAPGKGLEWVSILYSGGSTYYADSVKGRFTISRDNSKNTLYLQMNSLRAEDTAVYYCARDLVVYGADYWGQGTLVTVSS
VL: DIQLTQSPSFLSASVGDRVTITCRASQGISSYLAWYQQKPGKAPKLLIYAASTLQSGVPSRFSGSGSGTEFTLTISSLQPEDFATYYCQQLNSYPPPFGGGTKVEIK
B12: C511 (antibody, V domains shown)
VH: EVQLVESGGGLVQPGGSLRLSCAATEITVSSNYMTWVRQAPGKGLEWVSVIYPGGSTFYADSVKGRFSISRDNSKNTLYLQMNSLRAEDTAVYYCARDLVVYGLDCWGQGTLVTVSS
VL: DIQLTQSPSFLSASVGDRVTITCRASQGISSYLAWYQQKPGKAPKLLIYAASTLQSGVPSRFSGSGSGTEFTLTISSLQPEDFATYYCQQLNTYPPPFGGGTKVEIK
B13: C544 (antibody, V domains shown)
VH: QVQLVQSGAEVKKPGASVKVSCKASGYTFSSHDINWVRQATGQGLEWVGWMNPNSGNTGSAQSFQGRVTLTRNASISTAYLELSSLRSEDTAVYFCARGFSLTWYFDLWGRGTLVTVSS
VL: SYELTQPPSVSAAPGKTARITCGGNNIGGKNVHWYQQKPGQAPVLVVFDDSDRPSGIPERFSGSNSGNTATLTISRVEAGDEADYYCQLWDSTSDHPDVVFGGGTQLTVL
B14: C540 (antibody, V domains shown)
VH: EVQLVESGGGLVQPGGSLRLSCAASGFTFRNYDMHWVRQVAGKGLEWVSAIGTSGDTYYPDSVKGRFTISRENAKNSVYLQMNNLRAGDTAVYFCVRDREISGWTGWYFDLWGRGTLVTVSS
VL: DIQMTQSPSSLSASVGDRVTITCRASQTIHNYLNWYQQIPGKAPRLLIYATNTLQSGVPSRFSGSGSGTDFTLTITGLQPEDFATYYCQQSYSTPPITFGQGTRLEIK
B15: C546 (antibody, V domains shown)
VH: EVQLLESGGGLVHPGGSLRLSCAASGFTFSTYAMHWVRQAPGKGLEWVSAISGSGTGTFYADSVKGRFSISRDNSKNTLYLQMNSLRAEDTAVYYCATERIAVSDTRMYNWFDPWGQGTLVTVSS
VL: DIQMTQSPSSLSASVGDRVTLTCRASQGISTYLNWYQQKPGKAPNLLIYAASSLQSGVPSRFSGSGSGTDFTLTISSLQPEDFATYYCQQSYSAPPWTFGQGTKVEIK
B16: C542 (antibody, V domains shown)
VH: EVQLVESGGGLVQPGGSLRLSCAASGLTVTSNYMSWVRQAPGRGLEWVSLIYPGGTTYYADSVKGRFTVSRDNSKNTLYLQMDSLRAEDTGVYYCARETLGRGGDCWGQGTLVTVSS
VL: DIQMTQSPSSLSASVGDRVTITCQASQDISNFLNWYQQKPGKAPKLLIYDASNLETGVPSRFSGSRSGTDFTFTISSLQPDDIATYYCQQYDNLPRSFGQGTKLEIK
B17: C543 (antibody, V domains shown)
VH: QVQLVESGGGVVQPGRSLRLSCTASGFTFSTAGMHWVRQAPGKGLEWVAVISYDGSNKDYADSVKGRFTISRDNSKSTLYLQMNSLRPEDTAVYYCAKDTPGGDDIMTGWGLYGMDVWGQGTTVTVSS
VL: DIQMTQSPSSLSASVGDRVTITCRASQSISSYLNWYHQKPGKAPKLLIYAAISLQSGVPSRFSGSGFGTDFTLTISSLQPEDFAIYYCQQSYSTPWTFGQGTKVEIK
B18: C547 (antibody, V domains shown)
VH: QVQLVESGGGVVQPGRSLRLSCAASGFTFSSYGMHWVRQAPGKGLEWVAVISYDGSNKYYADSVKGRFTISRDNSKNTLYLQMNSLRAEDTAVYYCAKDTPGGDDILTGWGLYGMDVWGQGTTVTVSS
VL: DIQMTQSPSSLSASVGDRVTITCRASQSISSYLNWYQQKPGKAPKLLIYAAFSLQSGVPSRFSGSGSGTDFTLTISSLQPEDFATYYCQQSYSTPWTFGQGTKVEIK
B19: C549 (antibody, V domains shown)
VH: QVQLVQSGAEVKKPGSSVKVSCKASGGTFSTSAISWVRQAPGQGLEWMGGIIPFFGTPNYAQKFQGRVTIIADESTTTAYMELSGLRFEDSAVYYCARREPYGPRDYYYFFGMDVWGPGTTVTVSS
VL: QSALTQPPFASASLGASVTLTCTLSSDYSYYKVDWYQQRPGKGPRFVIRVGPGGIVGSKGDGFPDRFSVLGSGLNRSLTINNIQEEDEGDYHCGADEGSGGTFVGVFGGGTKLTV
B20: C545 (antibody, V domains shown)
VH: EVQLLESGGGLVKPGGSLRLSCAASGFTFSDYSMTWVRQAPGKGLEWVSFISSSSTYIYYADSVKGRFTISRDNAKSSLYLQMNRLRAEDTAVYYCTRVQVGARGWADYWGQGTLVTVSS
VL: NFMLTQPLSVSESPGKTVTISCTRSSGSIASNYVQWYQQRPGGAPTTVIYEDTQRPSGVPDRFSGSIDSSSNSASLTISGLKTEDEADYYCQSCDTINWVFGGGTKLTVV
B21: C548 (antibody, V domains shown)
VH: QVQLVQSGAEVKKPGSSVKVSCKASGGTFSSYAISWVRQAPGQGLEWMGGIIPIFGTANYAQKFQGRVTITADESTSTAYMELSSLRSEDTAVYYCARREAYGPRDYYYYYGMDVWGQGTTVTVSS
VL: QSALTQPPSASASLGASVTLTCTLSSGYSNYKVDWYQQRPGKGPRFVMRVGTGGIVGSKGDGIPDRFSVLGSGLNRYLTIKNIQEEDESDYHCGADQGSGSNFVGVFGGGTKLTVL

One test concerns the target SARS-CoV-2 spike receptor binding domain (RBD), S protein residues 319-539 (SARS-CoV-2, UniProt P0DTC2 319-539). The test is described as follows: ELISA on coated RBD. On the technique in general: An ELISA detects its analyte on a solid surface through an enzyme-linked reagent.
The EC50 is the concentration needed to bring the measured effect to its halfway point. The low end stands for an effect from little substance, the high end for a need for much substance. For the molecule B1, the EC50 came out at 3.77 ng/mL.
Same read-out and setting: the same measure for B2: 5.72 ng/mL.
Same read-out and setting: the same measure for B3: 6.48 ng/mL; for B4: 20.6 ng/mL.
In turn, B5 registered an EC50 of 3.56 ng/mL. Compared with the last molecule, the EC50 is about 5.8-fold lower.
Same read-out and setting: the figure for B6 is 1.68 ng/mL.
Same read-out and setting: the figure for B7 is 0.87 ng/mL; for B8 it is 0.82 ng/mL; for B9 it is 45.9 ng/mL.
The same measure, in the same setting: the figure for B10 is 1.31 ng/mL; for B11 it is 1.73 ng/mL; for B12 it is 1.33 ng/mL.

In the next test the target is SARS-CoV-2 spike protein receptor binding domain (RBD) (SARS-CoV-2, UniProt P0DTC2 319-539). The test is described as follows: ELISA, RBD coated on plate, mAb titrated.
B13 returned a half-maximal effective concentration (EC50) of 2.34 ng/mL.
On the same count and under the same terms, the figure for B14 is 2.9 ng/mL.
For B15, the EC50 came to 3.57 ng/mL.
Regarding B16, the EC50 was found to be 1.07 ng/mL.
On the same count and under the same terms, the figure for B17 is 1.28 ng/mL.
Molecule B18 gave an EC50 of 1.78 ng/mL.
In the case of B19, the concentration giving a half-maximal response (EC50) worked out at 1.76 ng/mL. This EC50 and that of the molecule before are within 1.5-fold of each other.
On the same count and under the same terms, the same measure for B20: 3.68 ng/mL; for B21: 1.72 ng/mL.
